Experimental data: patent US20250042984A1

What was measured:
[1] = target: VEGF-B (extracellular domain) (UniProt P49765); test: potency ELISA, VEGF-B coated plate; 160 mg/mL formulation in glass vials, 1 month at 5 C
[2] = target: VEGF-B (extracellular domain) (UniProt P49765); test: potency ELISA, VEGF-B coated plate; 160 mg/mL formulation in glass vials, 3 months at 5 C
[3] = target: VEGF-B (extracellular domain) (UniProt P49765); test: potency ELISA, VEGF-B coated plate; 160 mg/mL formulation in glass vials, 6 months at 5 C
[4] = target: VEGF-B (extracellular domain) (UniProt P49765); test: potency ELISA, VEGF-B coated plate; 160 mg/mL formulation in glass vials, 9 months at 5 C
[5] = target: VEGF-B (extracellular domain) (UniProt P49765); test: potency ELISA, VEGF-B coated plate; 160 mg/mL formulation in glass vials, 1 month at 25 C
[6] = target: VEGF-B (extracellular domain) (UniProt P49765); test: potency ELISA, VEGF-B coated plate; 160 mg/mL formulation in glass vials, 1 month at 35 C
[7] = target: VEGF-B (extracellular domain) (UniProt P49765); test: potency ELISA, VEGF-B coated plate; 160 mg/mL formulation in glass vials, 12 months at 5 C
[8] = target: VEGF-B (extracellular domain) (UniProt P49765); test: potency ELISA, VEGF-B coated plate; 160 mg/mL formulation in glass vials, 3 months at 25 C
[9] = target: VEGF-B (extracellular domain) (UniProt P49765); test: potency ELISA, VEGF-B coated plate; 160 mg/mL formulation in glass vials, 6 months at 25 C
[10] = target: VEGF-B (extracellular domain) (UniProt P49765); test: potency ELISA, VEGF-B coated plate; 160 mg/mL formulation in glass vials, 9 months at 25 C
[11] = target: VEGF-B (extracellular domain) (UniProt P49765); test: potency ELISA, VEGF-B coated plate; 160 mg/mL formulation in glass vials, 3 months at 35 C
[12] = target: VEGF-B (extracellular domain) (UniProt P49765); test: potency ELISA, VEGF-B coated plate; 160 mg/mL formulation in glass vials, 6 months at 35 C
[13] = target: VEGF-B (extracellular domain) (UniProt P49765); test: potency ELISA, VEGF-B coated plate; 160 mg/mL formulation in glass vials, 9 months at 35 C
[14] = target: VEGF-B (extracellular domain) (UniProt P49765); test: potency ELISA, VEGF-B coated plate; 160 mg/mL formulation in glass vials, 12 months at 25 C
[15] = target: VEGF-B (extracellular domain) (UniProt P49765); test: potency ELISA, VEGF-B coated plate; 160 mg/mL formulation in glass vials, 12 months at 35 C
[16] = target: VEGF-B (extracellular domain) (UniProt P49765); test: potency ELISA, VEGF-B coated plate; 160 mg/mL formulation in glass vials, 0 months (25 C table)
[17] = target: VEGF-B (extracellular domain) (UniProt P49765); test: potency ELISA, VEGF-B coated plate; 160 mg/mL formulation in glass vials, 0 months (35 C table)
[18] = target: VEGF-B (extracellular domain) (UniProt P49765); test: potency ELISA, VEGF-B coated plate, HRP detection, 4PL and parallel line analysis; 160 mg/mL formulation in glass vials, 0 months (5 C table)

Sequence of UniProt P49765 (P49765 22-207): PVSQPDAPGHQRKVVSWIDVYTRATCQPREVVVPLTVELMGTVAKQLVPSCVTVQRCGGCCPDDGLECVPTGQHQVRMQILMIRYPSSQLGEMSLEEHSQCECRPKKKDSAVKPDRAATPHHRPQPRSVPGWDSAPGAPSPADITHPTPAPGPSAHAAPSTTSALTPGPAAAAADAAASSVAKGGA

Substance: anti-VEGFB antibody (CSL346)
- Surrogate potency for VEGF-B binding by ELISA (relative to CSL346 reference standard) (% relative to reference standard) [1]: 109
- Surrogate potency for VEGF-B binding by ELISA (relative to CSL346 reference standard) (% relative to reference standard) [2]: 96
- Surrogate potency for VEGF-B binding by ELISA (relative to CSL346 reference standard) (% relative to reference standard) [3]: 101
- Surrogate potency for VEGF-B binding by ELISA (relative to CSL346 reference standard) (% relative to reference standard) [4]: 109
- Surrogate potency for VEGF-B binding by ELISA (relative to CSL346 reference standard) (% relative to reference standard) [5]: 107
- Surrogate potency for VEGF-B binding by ELISA (relative to CSL346 reference standard) (% relative to reference standard) [6]: 115
- Surrogate potency for VEGF-B binding by ELISA (relative to CSL346 reference standard) (% relative to reference standard) [7]: 110
- Surrogate potency for VEGF-B binding by ELISA (relative to CSL346 reference standard) (% relative to reference standard) [8]: 113
- Surrogate potency for VEGF-B binding by ELISA (relative to CSL346 reference standard) (% relative to reference standard) [9]: 95
- Surrogate potency for VEGF-B binding by ELISA (relative to CSL346 reference standard) (% relative to reference standard) [10]: 101
- Surrogate potency for VEGF-B binding by ELISA (relative to CSL346 reference standard) (% relative to reference standard) [11]: 92
- Surrogate potency for VEGF-B binding by ELISA (relative to CSL346 reference standard) (% relative to reference standard) [12]: 95
- Surrogate potency for VEGF-B binding by ELISA (relative to CSL346 reference standard) (% relative to reference standard) [13]: 98
- Surrogate potency for VEGF-B binding by ELISA (relative to CSL346 reference standard) (% relative to reference standard) [14]: 136
- Surrogate potency for VEGF-B binding by ELISA (relative to CSL346 reference standard) (% relative to reference standard) [15]: 106
- Surrogate potency for VEGF-B binding by ELISA (relative to CSL346 reference standard) (% relative to reference standard) [16]: 105
- Surrogate potency for VEGF-B binding by ELISA (relative to CSL346 reference standard) (% relative to reference standard) [17]: 105
- Surrogate potency for VEGF-B binding by ELISA (relative to CSL346 reference standard) (% relative to reference standard) [18]: 105
